Assay [1] concerns the target T1, recombinant DPP9-short (His-tagged DPP9 wild type) (UniProt Q86TI2 1-863).
T1 construct: DPP9, short isoform (DPP9-short); The His tag is named only for the SPR experiment; also called DPP9 wt; dipeptidylpeptidase 9
Put plainly: SPR; His-tagged DPP9 captured on a Ni2+ chelator chip (2500 to 3500 µRIU); peptide injected at 16 µM to 0.125 µM (Syk 1–31) or 32 µM to 1 µM (Syk 3–31); 20 mM Hepes, 150 mM NaCl, 0.005% Tween 20, 50 µM EDTA, pH 7.4; 40 µl/min; equilibrium binding analysis. To be noted: both partners purified. On the technique in general: In SPR one partner is held on a chip, and binding of the other changes the refractive index at the surface.

Assay [2] has as its target T2, DPP9 S730G (inactive DPP9 variant) (UniProt Q86TI2 1-863, S730G).
T2 construct: DPP9 with the active-site serine mutated to glycine; Parent construct is surmised to be DPP9-short as in m1; source: recombinant
Described as above. To be noted: both partners purified.

Consider two molecules from publication PMC5039030, “DPP9 is a novel component of the N-end rule pathway targeting the tyrosine kinase Syk” (eLife, 2016).

T1 sequence (Q86TI2 whole entry, canonical isoform): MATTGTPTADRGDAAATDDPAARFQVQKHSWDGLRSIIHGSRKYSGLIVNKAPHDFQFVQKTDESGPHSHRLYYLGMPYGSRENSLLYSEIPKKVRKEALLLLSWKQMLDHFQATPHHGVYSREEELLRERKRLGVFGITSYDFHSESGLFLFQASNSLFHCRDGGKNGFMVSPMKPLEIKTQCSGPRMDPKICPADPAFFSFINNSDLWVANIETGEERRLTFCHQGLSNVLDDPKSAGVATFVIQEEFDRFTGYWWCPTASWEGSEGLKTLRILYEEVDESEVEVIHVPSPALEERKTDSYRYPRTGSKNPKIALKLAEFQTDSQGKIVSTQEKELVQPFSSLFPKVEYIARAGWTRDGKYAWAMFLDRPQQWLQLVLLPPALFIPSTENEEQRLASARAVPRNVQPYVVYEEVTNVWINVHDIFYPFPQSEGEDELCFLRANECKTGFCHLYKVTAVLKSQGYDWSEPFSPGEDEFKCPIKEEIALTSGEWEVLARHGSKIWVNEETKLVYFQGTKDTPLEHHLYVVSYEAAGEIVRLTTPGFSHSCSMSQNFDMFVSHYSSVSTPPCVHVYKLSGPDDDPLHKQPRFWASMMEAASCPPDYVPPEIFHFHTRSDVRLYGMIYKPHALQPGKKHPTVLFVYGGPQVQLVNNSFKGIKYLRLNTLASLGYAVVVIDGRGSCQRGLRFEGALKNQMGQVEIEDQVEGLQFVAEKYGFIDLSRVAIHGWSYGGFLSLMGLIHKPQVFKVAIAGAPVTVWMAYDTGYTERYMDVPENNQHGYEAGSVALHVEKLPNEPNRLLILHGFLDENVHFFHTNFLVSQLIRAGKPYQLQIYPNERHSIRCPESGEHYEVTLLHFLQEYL
T2 sequence (Q86TI2 whole entry S730G): as the sequence (Q86TI2 whole entry, canonical isoform) above, with S730G counted along it

B1: synthetic Syk (1–31) peptide covering the first 31 amino acids of full-length Syk (peptide)
peptide: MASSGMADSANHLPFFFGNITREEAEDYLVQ
notes: tyrosine kinase Syk, residues 1–31; also called Syk N-terminus peptide (1–31); Syk amino terminus peptide 1–31; source: synthetic peptide (custom-made by GenScript, >80% purity)
A word on the Kd: it is a measure of binding affinity in units of concentration. On to B1, for which the Kd in assay [1] worked out at 52 µM; in assay [2] it was 284 µM.

B2: Syk△MA (3–31) peptide (peptide)
peptide: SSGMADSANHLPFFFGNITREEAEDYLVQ
notes: tyrosine kinase Syk, residues 3–31; also called Syk (3–31); source: synthetic peptide (custom-made by GenScript, >80% purity)
In the case of B2, the Kd in assay [1] turned out to be 156 µM.
